B1: CPEB3 Ribozyme (parent)
chain: GGGGGCCACAGCAGAAGCGUUCACGUCGCGGCCCCUGUCAGAUUCUGGUGAAUCUGCGAAUUCUGCUGU

Variants of: B1
Assay: self-cleavage, relative activity (ratio to wild type); higher = more cleavage; co-transcriptional

Variant	self-cleavage
C27A G48A	0.745
C27U G48A	0.431
C27U G48U	0.504
U26C C35A	0.254
C27A G37A	0.203
C27U G50C	0.272
C27U C39U	0.254
C27U C35G	0.14
G28U C29G	0.129
G28C C34A	0.127
G28U A52G	0.18
G28C C35G	0.17
U26C C39A	0.79
C27A A60C	0.23
U26A G41A	0.561
U26A G41U	0.67
C27U G41A	0.147
G28A A51G	0.229
C27G U61C	0.169
C27G U61G	0.172
U26G C34A	0.57

Variant	self-cleavage
U26C C32A	0.753
U26C C32U	0.974
U26A G30U	0.254
U26A G30C	0.266
C27A C54U	0.602
C27A C54G	0.156
G28A C63U	0.195
G28C A52C	0.198
G28C A52G	0.174
G28C A60C	0.217
U26G G41U	0.756
G28C U38G	0.133
G28C U38A	0.222
G28C U55A	0.241
G28U A40U	0.213
C27G G41C	0.176
G28A G50C	0.226
G28U G31A	0.24
U26G G48A	0.937
U26G G48C	0.959
U26A G47C	0.891

Variant	self-cleavage
C27U U43C	0.285
G28U C45G	0.162
C27A G47A	0.734
G28U C33U	0.155
G28C G65U	0.16
C27G G65U	0.164
C27G G65C	0.234
U26C U43C	0.892
U26C U43A	0.865
C27A G56A	0.276
C27U G31C	0.143
U26C U49A	0.984
G28U G48C	0.169
G28U G48U	0.198
C27U C63A	0.165
C27U C63G	0.263
C27G A60C	0.238
U26A G28U	0.211
C27U U36C	0.201
G28A U38A	0.176
U26G A60C	0.361

Variant	self-cleavage
U26G A60G	0.631
G28U A60U	0.138
C27G G31U	0.2
U26G C27A	0.458
G28C U61G	0.229
G28C U61A	0.256
C27U A60U	0.205
U26A U61A	0.515
U26C U62G	0.694
U26A G65U	0.466
U26A G65C	0.466
C27U C45U	0.35
C27U C45A	0.216
G28C U46C	0.131
G28C U46G	0.118
G28C U46A	0.173
U26A U69A	0.938
C27U U61A	0.22
C27U U61G	0.277
G28A U49A	0.181
C27A U36A	0.207
